Results as given in patent publication US20200024330A1.

Experiments:
[1] = target: HIV-1 Env of isolate MG RM-AG-013 (HIV-1); experiment: cell-based or functional assay
[2] = target: HIV-1 MGRM-Chronic-B-010 Env (pseudovirus) (HIV-1); experiment: cell-based or functional assay
[3] = target: HIV-1 Env of isolate 92RW021 (HIV-1); experiment: cell-based or functional assay
[4] = target: HIV-1 Env of isolate 92RW024 (HIV-1); experiment: cell-based or functional assay
[5] = target: HIV-1 Env of isolate MGRM-C-027 (subtype C), on pseudovirus (HIV-1); experiment: cell-based or functional assay
[6] = target: HIV-1 Env of isolate MGRM-D-024 (HIV-1); experiment: cell-based or functional assay
[7] = target: HIV-1 Env of isolate MGRM-D-026 (HIV-1); experiment: cell-based or functional assay
[8] = target: HIV-1 Env of isolate MGRM-F1-006 (HIV-1); experiment: cell-based or functional assay
[9] = target: HIV-1 Env of isolate MGRM-F1-012 (HIV-1); experiment: cell-based or functional assay
[10] = target: HIV-1 Env of isolate MGRM-F1-018 (clade F), on pseudovirus (HIV-1); experiment: cell-based or functional assay
[11] = target: HIV-1 Env of isolate SC422661.8 (subtype B) (HIV-1); experiment: cell-based or functional assay
[12] = target: HIV-1 IAVI_C22 envelope protein (Env) on pseudotyped virus (HIV-1 isolate IAVI C22); experiment: cell-based or functional assay
[13] = target: HIV-1 NL43 envelope protein (Env) on pseudotyped virus (HIV-1 NL43); experiment: cell-based or functional assay
[14] = target: HIV-1 envelope glycoprotein (Env) of isolate MGRM-Chronic-B-004, on pseudovirus (HIV-1); experiment: cell-based or functional assay
[15] = target: HIV-1 envelope glycoprotein (Env) of isolate MGRM-Chronic-B-023, on pseudovirus (HIV-1); experiment: cell-based or functional assay
[16] = target: HIV-1 92TH021 Env (on pseudovirus) (HIV-1); experiment: cell-based or functional assay
[17] = target: HIV-1 APV17 Env (on pseudovirus) (HIV-1); experiment: cell-based or functional assay
[18] = target: HIV-1 MGRM-C-026 Env (on pseudovirus) (HIV-1); experiment: cell-based or functional assay
[19] = target: HIV-1 MGRM-C-027 Env (on pseudovirus) (HIV-1); experiment: cell-based or functional assay
[20] = target: HIV-1 MGRM-C-028 Env (on pseudovirus) (HIV-1); experiment: cell-based or functional assay
[21] = target: HIV-1 envelope glycoprotein (Env) of isolate MGRM-C-020, on pseudovirus (HIV-1); experiment: cell-based or functional assay
[22] = target: HIV-1 envelope glycoprotein (Env) of isolate MGRM-C-024, on pseudovirus (HIV-1); experiment: cell-based or functional assay
[23] = target: HIV-1 envelope glycoprotein (Env) of isolate MGRM-C-028, on pseudovirus (HIV-1); experiment: cell-based or functional assay
[24] = target: aMLV envelope protein (on pseudovirus, negative control) (aMLV); experiment: cell-based or functional assay
[25] = target: HIV-1 Env of isolate MGRM-F1-008 (HIV-1); experiment: cell-based or functional assay
[26] = target: HIV-1 APV17 envelope glycoprotein (Env) (HIV-1); experiment: cell-based or functional assay
[27] = target: HIV-1 JR-CSF Env G324A (HIV-1 isolate JR-CSF) (UniProt P20871); experiment: cell-based or functional assay
[28] = target: HIV-1 JR-CSF Env I424A (HIV-1 (isolate JR-CSF)) (UniProt P20871); experiment: cell-based or functional assay
[29] = target: HIV-1 JR-CSF Env N302A (HIV-1 JR-CSF) (UniProt P20871); experiment: cell-based or functional assay
[30] = target: HIV-1 JR-CSF Env N396A (HIV-1 (isolate JR-CSF)) (UniProt P20871); experiment: cell-based or functional assay
[31] = target: HIV-1 JR-CSF Env S306A (HIV-1 JR-CSF) (UniProt P20871); experiment: cell-based or functional assay
[32] = target: HIV-1 JR-CSF Env S387A (HIV-1 (isolate JR-CSF)) (UniProt P20871); experiment: cell-based or functional assay
[33] = target: HIV-1 JR-CSF Env V292A (HIV-1 JR-CSF) (UniProt P20871); experiment: cell-based or functional assay
[34] = target: HIV-1 JRFL envelope glycoprotein (Env) (HIV-1); experiment: cell-based or functional assay
[35] = target: JR-FL gp120 ΔV1/ΔV2 (HIV-1 (isolate JR-FL)); experiment: ELISA on coated gp120; EC50 by nonlinear regression
[36] = target: WT JR-FL gp120 (HIV-1 (isolate JR-FL)); experiment: as above
[37] = target: HIV-1 92BR020 envelope protein (Env) on pseudotyped virus (HIV-1 isolate 92BR020); experiment: cell-based or functional assay
[38] = target: HIV-1 JRFL envelope glycoprotein (Env) on pseudovirus (HIV-1); experiment: cell-based or functional assay
[39] = target: HIV-1 MGRM-AG-005 envelope glycoprotein (Env) on pseudovirus (HIV-1); experiment: cell-based or functional assay

Chain of PGT-142 (4995_E20) (antibody) (VH): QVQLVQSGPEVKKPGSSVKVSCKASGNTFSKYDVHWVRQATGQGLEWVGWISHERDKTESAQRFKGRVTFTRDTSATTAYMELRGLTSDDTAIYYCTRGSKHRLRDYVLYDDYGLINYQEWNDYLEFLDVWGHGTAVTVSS
Chain of PGT-142 (4995_E20) (antibody) (VL): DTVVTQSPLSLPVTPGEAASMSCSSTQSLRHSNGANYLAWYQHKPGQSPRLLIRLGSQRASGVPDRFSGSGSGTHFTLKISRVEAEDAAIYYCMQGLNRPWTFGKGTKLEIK
Chain of 1443_C16 (PG16) (TCN-116) (antibody) (VH): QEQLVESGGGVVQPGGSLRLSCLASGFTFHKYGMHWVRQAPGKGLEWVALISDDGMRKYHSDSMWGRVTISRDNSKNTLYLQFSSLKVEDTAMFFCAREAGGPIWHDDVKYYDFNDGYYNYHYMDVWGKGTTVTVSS
Chain of 1443_C16 (PG16) (TCN-116) (antibody) (VL): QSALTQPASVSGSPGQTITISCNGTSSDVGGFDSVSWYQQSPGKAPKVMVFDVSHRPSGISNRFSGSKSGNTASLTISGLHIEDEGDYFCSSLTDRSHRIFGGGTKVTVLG

5145_B14 (PGT-127) (antibody)
neutralization IC50 [1]: 0.018 µg/mL
IC50, pseudovirus neutralization [2]: 0.019 µg/mL

1496_C09 (PG9) (TCN-109) (antibody)
IC50 [3]: 0.027 µg/mL
IC50 [4]: 0.258 µg/mL
IC50 (µg/mL), pseudovirus neutralization [5]: 5.36 µg/mL
IC50 (µg/mL), pseudovirus neutralization [6]: 0.038 µg/mL
IC50 (µg/mL), pseudovirus neutralization [7]: 23.7 µg/mL
IC50 (µg/mL), pseudovirus neutralization [8]: 7.25 µg/mL
IC50 (µg/mL), pseudovirus neutralization [9]: 0.023 µg/mL
IC50 (µg/mL), single-round pseudovirus neutralization [10]: 0.019 µg/mL
IC50 (µg/mL), pseudovirus neutralization [11]: 1.48 µg/mL
IC50, pseudovirus neutralization, 1 hour Virus/Ab Incubation [12]: 24.9 µg/mL
IC50, pseudovirus neutralization, 18 hour Virus/Ab Incubation [12]: 2.11 µg/mL
IC50, pseudovirus neutralization, 1 hour Virus/Ab Incubation [13]: 0.294 µg/mL
IC50, pseudovirus neutralization, 18 hour Virus/Ab Incubation [13]: 38 µg/mL
IC50, pseudovirus neutralization [14]: 0.533 µg/mL
IC50, pseudovirus neutralization [15]: 0.027 µg/mL

PGT-142 (4995_E20) (antibody)
IC50 (ug/ml), pseudovirus neutralization [16]: 0.0022 µg/mL
IC50 (ug/ml), pseudovirus neutralization [17]: 0.393 µg/mL
IC50 (ug/ml), pseudovirus neutralization [18]: > 10 µg/mL
IC50 (ug/ml), pseudovirus neutralization [19]: 0.272 µg/mL
IC50 (ug/ml), pseudovirus neutralization [20]: 1.23 µg/mL
IC50, pseudovirus neutralization [21]: 0.446 µg/mL
IC50, pseudovirus neutralization [22]: 0.03 µg/mL
IC50, pseudovirus neutralization [23]: 2.12 µg/mL
IC50 (ug/ml), pseudovirus neutralization [24]: > 10 µg/mL

PGV04 (antibody)
IC50 [3]: 0.038 µg/mL
IC50 [4]: 0.31 µg/mL
IC50 (µg/mL), pseudovirus neutralization [5]: 2.76 µg/mL
IC50 (µg/mL), pseudovirus neutralization [6]: > 50 µg/mL
IC50 (µg/mL), pseudovirus neutralization [7]: 1.76 µg/mL
IC50 (µg/mL), pseudovirus neutralization [8]: > 50 µg/mL
IC50 (µg/mL), pseudovirus neutralization [25]: 1.03 µg/mL
IC50 (µg/mL), pseudovirus neutralization [9]: 0.25 µg/mL
IC50 (µg/mL), single-round pseudovirus neutralization [10]: 0.027 µg/mL
IC50 (µg/mL), pseudovirus neutralization [11]: 0.11 µg/mL
IC50, pseudovirus neutralization [14]: 0.047 µg/mL
IC50, pseudovirus neutralization [15]: 0.139 µg/mL

PGT-121 (antibody)
IC50 neutralization [26]: 0.095 µg/mL
Fold IC50 increase relative to wild-type [27]: 16.6 fold
Fold IC50 increase relative to wild-type [28]: 0.9 fold
Fold IC50 increase relative to wild-type [29]: 0.7 fold
Fold IC50 increase relative to wild-type [30]: 1.3 fold
Fold IC50 increase relative to wild-type [31]: 0.7 fold
Fold IC50 increase relative to wild-type [32]: 0.5 fold
Fold IC50 increase relative to wild-type [33]: 2.7 fold
IC50 neutralization [34]: 0.0276 µg/mL
EC50 [35]: 0.2 µg/mL
EC50 [36]: 0.2 µg/mL

1443_C16 (PG16) (TCN-116) (antibody)
IC50, pseudovirus neutralization, 1 hour Virus/Ab Incubation [37]: > 50 µg/mL
IC50, pseudovirus neutralization, 18 hour Virus/Ab Incubation [37]: > 50 µg/mL
IC50, pseudovirus neutralization, 1 hour Virus/Ab Incubation [12]: 0.114 µg/mL
IC50, pseudovirus neutralization, 18 hour Virus/Ab Incubation [12]: 0.106 µg/mL
IC50, pseudovirus neutralization, 1 hour Virus/Ab Incubation [13]: < 0.0025 µg/mL
IC50, pseudovirus neutralization, 18 hour Virus/Ab Incubation [13]: 4.99 µg/mL

4877_D15 (PGT-122) (antibody)
neutralization IC50 [1]: 0.521 µg/mL
IC50 (ug/ml), neutralizing activity [38]: 0.0471 µg/mL
IC50 (ug/ml), neutralizing activity [39]: > 10 µg/mL
IC50, pseudovirus neutralization [2]: 0.018 µg/mL

1495_C14 (PGC14) (antibody)
IC50, pseudovirus neutralization, 1 hour Virus/Ab Incubation [37]: 1.17 µg/mL
IC50, pseudovirus neutralization, 18 hour Virus/Ab Incubation [37]: 0.244 µg/mL
IC50, pseudovirus neutralization, 1 hour Virus/Ab Incubation [12]: > 50 µg/mL
IC50, pseudovirus neutralization, 18 hour Virus/Ab Incubation [12]: 13.4 µg/mL
IC50, pseudovirus neutralization, 1 hour Virus/Ab Incubation [13]: 0.35 µg/mL
IC50, pseudovirus neutralization, 18 hour Virus/Ab Incubation [13]: 0.15 µg/mL

5147_N06 (PGT-130) (antibody)
IC50 (ug/ml), neutralizing activity [38]: 0.0346 µg/mL
IC50 (ug/ml), neutralizing activity [39]: 0.947 µg/mL
